Data on one molecule can be found in US20230078601A1 (CLEVELAND CLINIC FOUNDATION, published 2023).

Assay [1] concerns the target T1, AMHR2-ED 22-26 5-mer peptide (LGELL) (human).
T1 construct: Synthesised on a cellulose membrane (SPOT peptide array); also called 22LGELL26; Residues 22-26 of AMHR2-ED and 39-43 of AMHR2
T1 peptide: LGELL
Briefly: SPOT peptide array, 4D12G1 at 1.0 ug/ml, chemiluminescence. Here is the method:
The AMHR2-ED binding sequence of the 4D12G1 mAb and the critical AMHR2-ED residues for such binding were confirmed by SPOT peptide arrays. Peptides spanning the AMHR2-ED 9-40 immunoreactive region and ranging from 4-16-mers in length were synthesized >90% pure on cellulose membranes (JPT Peptide Technologies, Berlin, Germany), treated overnight with blocking buffer (Thermo Fisher), followed by treatment with the 4D12G1 mAb at 1.0 μg/ml for 3 hours at room temperature, followed by three washes with PBS containing 0.01% Tween-20 (Bio-Rad). The membranes were then treated with a 1:10,000 dilution of an HRP-conjugated rabbit anti-mouse IgG (MilliporeSigma) followed by three washes with PBS containing 0.01% Tween-20 (Bio-Rad). Bound antibody was detected using the HyGLO chemiluminescence system (Thomas Scientific).
An overlapping series of 16-mer peptides spanning the entire 132 amino acid sequence of human AMHR2-ED (FIG. 3A) with moving single amino acid shifts were plated for direct ELISA testing using the 4D12G1 mAb as primary antibody. […] To determine amino acids recognized by the 4D12G1 mAb, an overlapping series of peptides spanning the immunoreactive sequence comprising AMHR2-ED 13-30 were synthesized with alanine substitutions at each N-terminal residue or with glycine substitutions for any native N-terminal alanine. […] Bound antibody was detected by chemiluminescence.

Assay [2] concerns the target T2, recombinant extracellular domain of human AMHR2 (rhAMHR2-ED), C-terminal hexahistidine-tagged fusion protein (human, UniProt Q16671 18-149).
T2 construct: also called human AMHR2-ED
T2 sequence: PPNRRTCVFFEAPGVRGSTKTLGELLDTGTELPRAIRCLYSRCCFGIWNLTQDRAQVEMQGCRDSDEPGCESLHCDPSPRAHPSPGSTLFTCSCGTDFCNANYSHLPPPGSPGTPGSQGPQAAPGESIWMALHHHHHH
Briefly: SPR, Biacore 3000, 25 C; 4D12G1 immobilised by amine coupling, rhAMHR2-ED as analyte, Langmuir 1:1 fit. Here is the method:
Briefly, the 4D12G1 mAb at 300 nM was diluted in sodium acetate at pH 5.0 and covalently immobilized on carboxymethylated dextran over a gold surface using an aqueous solution of N-ethyl-N′-(3-dimethylaminopropyl)carbodiimide (EDC) and N-hydroxysuccinimide (NHS; Sigma-Aldrich). The rhAMHR2-ED receptor analyte at different concentrations (10-1-103 nM) in a running buffer containing 10 mM HEPES at pH 7.4, 150 mM NaCl, 3 mM EDTA, and 0.005% P20 detergent was captured with a […] flow over the immobilized 4D12G1 ligand. Regeneration of flow cells was performed using 10 mM glycine (Sigma-Aldrich) at pH 1.7. All sensorgrams were corrected by subtracting the low signal of the control flow cell and the dissociation curve of the 4D12G1 mAb. The KD values, taking into account affinity and avidity, were calculated using a Langmuir 1:1 fitting model and BIAevaluation 3.2 software (GE Healthcare Bio-Sciences).
An overlapping series of 16-mer peptides spanning the entire 132 amino acid sequence of human AMHR2-ED (FIG. 3A) with moving single amino acid shifts were plated for direct ELISA testing using the 4D12G1 mAb as primary antibody. […]

The target in assay [3] is T3, rβ-Casein (mouse, UniProt P10598).
T3 construct: recombinant; also called recombinant mouse β-casein; recombinant β-casein
T3 sequence (P10598 16-231 limits assumed): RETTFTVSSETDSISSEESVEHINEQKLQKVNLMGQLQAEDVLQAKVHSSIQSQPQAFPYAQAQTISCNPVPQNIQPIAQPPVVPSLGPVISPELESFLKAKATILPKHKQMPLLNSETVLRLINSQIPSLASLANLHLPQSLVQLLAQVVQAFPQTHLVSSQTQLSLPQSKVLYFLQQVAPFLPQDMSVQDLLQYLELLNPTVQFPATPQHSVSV
Briefly: competitive ELISA: 4D12G1 pre-incubated with rising rβ-casein, then added to plates coated with rhAMHR2-ED. Here is the method: The specificity of the mAbs was determined by competitive ELISA. Briefly, mAbs were incubated with increasing concentrations of rhAMHR2-ED in liquid phase PBS containing 0.02% Tween-20 (Bio-Rad) for 24 hours at 4° C. The antigen-antibody mixtures were added to the 96-well Maxisorp microtiter plates (Corning Life Sciences, Tewksbury, Mass.) pre-coated with 4 μg/ml rhAMHR2-ED followed by blocking with 1% BSA (Sigma-Aldrich). Recombinant mouse β-casein was used as the specificity control. Wells were then incubated with a secondary anti-mouse IgG conjugated with horseradish peroxidase (HRP; MilliporeSigma, Burlington, Mass.) followed by addition of 2,2′-Azino-bis(3-ethylbenzothiazoline-6-sulfonic acid) diammonium salt (ABTS) substrate (Sigma-Aldrich). Optical density was determined by absorbance at 405 nm.
On the technique in general: ELISA stands for enzyme-linked immunosorbent assay.

B1: 4D12G1 mAb (antibody, IgG1, V domains shown)
VH: DVKLVESGGGLVKLGGSLKLSCAASGFTFSRYFMSWVRQTPEKRLELVAAINSDGGRTYYPDTVKGRFTISRDNAKNTLYLQMSSLKSEDTALYYCTRHIYSYYEDYFDYWGQGTTLTVSS
VL: DVVMTQTPLSLPVSLGDQASISCRSSQSLVHSNGNTYLHWYLQKPGQSPKLLIYKVSKRFSGVPDRFSGSGSGTDFTLKISRVEAEDLGVYFCSQSTHVYTFGGGTKLEIK
notes: also called 4D12G1 IgG1 mAb
Usually Kd stands for the constant that tells how readily two partners part at equilibrium. As to B1, the figures for the binding result in assay [1] and in assay [3] were “binds” and “no binding (tested: 100 µg/ml)”, respectively. For the same molecule, the Kd in assay [2] was 0.119 nM.
